Patent US10787640B2, “Producing mesodermal cell types and methods of using the same” (The Board of Trustees of the Leland Stanford Junior …, priority 2015, dated 2020)

What was measured:
[1] = system: hESCs; experiment: Primitive streak (PS) induction from hESCs, qPCR; format: cell-based, human
Description: As aforementioned, after overnight plating, hPSCs were briefly washed (with DMEM/F12) and then differentiated into either anterior primitive streak (30 ng/mL Activin A+4 μM CHIR99021+20 ng/mL FGF2+100 nM PIK90; for subsequent paraxial mesoderm induction) or mid primitive streak ([…] Activin A+40 ng/mL BMP4+6 μM CHIR99021+20 ng/mL FGF2+100 nM PIK90; for subsequent cardiac mesoderm induction) for 24 hrs.
Total cDNA was diluted 1:10-1:30 in H2O and qPCR was performed with the SensiFAST SYBR Lo-ROX Kit (Bioline) with 10 μL qPCR reactions per well in a 384-well plate: 5.0 μL 2× qPCR Master Mix+4.6 μL cDNA (totaling ˜120 ng of cDNA)+0.4 μL of 10 μM primer stock (5 μM forward+5 μM reverse primers). In general, gene-specific primer pairs were tested for (1) specificity of amplicon amplification (only one peak on a dissociation curve) and (2) linearity of amplicon amplification (linear detection of gene expression in cDNA samples serially diluted seven times over two orders of magnitude, with 90-110% efficiency of amplification deemed acceptably linear). After qPCR plates were prepared by arraying sample-specific cDNAs and gene-specific primers, they were sealed and briefly centrifuged (5 mins). 384-well qPCR plates and their adhesive sealing sheets were obtained from Thermo (AB1384 and AB0558, respectively). qPCR plates were run on a 7900HT Fast Real-Time PCR System (Applied Biosystems) with the following cycling parameters: initial dissociation (95° C., 2 mins) followed by 40 cycles of amplification and SYBR signal detection (95° C. dissociation, 5 seconds; 60° C. annealing, 10 seconds; followed by 72° C. extension, 30 seconds), with a final series of steps to generate a dissociation curve at the end of each qPCR run. During qPCR data analysis, the fluorescence threshold to determine Ct values was set at the linear phase of amplification; other qPCR data analysis methods including qPCR heatmap generation using the GenePattern platform (Broad Institute) were described previously by Loh et al., 2014, the disclosure of which is incorporated herein by reference in its entirety.
E) To assess whether inducing PS in the presence of TGFβ signaling altered its downstream potential to form different kinds of mesoderm, (i) H7 hESCs were differentiated into PS with CHIR99021+FGF2+PIK90 (CFK) for 24 hours in the presence or absence of increasing amounts of Activin (10-100 ng/mL), and then were transferred into paraxial mesoderm induction conditions (A-83-01+CHIR99021+DM3189+FGF2) for 24 hrs, and qPCR was conducted or (ii) H7 hESCs were differentiated into PS with BMP4 (10 ng/mL)+CHIR99021+FGF2+PIK90 (B10CFK) for 24 hours in the presence or absence of increasing amounts of Activin (10-100 ng/mL), and then were transferred into lateral/cardiac mesoderm inductions (A-83-01+BMP4+C59) for 24 hours and qPCR was conducted. […] F) To assess whether inducing PS in the presence of BMP signaling altered its downstream potential to form different kinds of mesoderm, H7 hESCs were differentiated into PS with Activin (10 ng/mL)+CHIR99021+FGF2+PIK90 (A10CFK) for 24 hours in the presence of absence of increasing amounts of BMP4 (1-40 ng/mL), and then were (i) transferred into paraxial mesoderm induction conditions (A-83-01+CHIR99021+DM3189+FGF2) for 24 hrs, and qPCR was conducted or were (ii) transferred into lateral/cardiac mesoderm inductions (A-83-01+BMP4+C59) for 24 hours and qPCR was conducted. […] G) H7 hESCs were differentiated into anterior primitive streak (30 ng/mL Activin+4 μM CHIR99021+20 ng/mL FGF2+100 nM PIK90) in the presence or absence of BMP4 (10 ng/mL) for 24 hours, and then transferred into paraxial mesoderm induction conditions for 24 hours before TBX6 immunostaining was conducted. […]

[2] = system: hESC-derived cardiac mesoderm; experiment: Cardiac mesoderm differentiation into cardiovascular fates, qPCR; format: cell-based, human
Description: Day 2 lateral mesoderm was differentiated into day 4 cardiac mesoderm by treating them with 1 μM A8301+30 ng/mL BMP4+1 μM C59+20 ng/mL FGF2 for 48 hrs, or alternatively, with 1 μM A8301+30 ng/mL BMP4+20 ng/mL FGF2 for 24 hrs followed by 25 ng/mL Activin+30 ng/mL BMP4+1 μM C59 for the next 24 hrs (schema in FIG. 5E; positive effect of mid-stage Activin shown in FIG. 12K). Subsequently, day 4 cardiac mesoderm was briefly washed (DMEM/F12) and treated with 30 ng/mL BMP4+1 μM XAV939+200 μg/mL 2-phospho-ascorbic acid (Sigma) for 48-96 hrs to yield day 6-8 cardiomyocyte-containing populations. Spontaneously contracting cardiomyocyte foci were evident from day 8 onwards.
C) To reveal the possible identity of non-cardiac mesoderm lineages that were contaminating cardiac mesoderm-containing cultures, NKX2.5-GFP hESCs were differentiated towards mid primitive streak (day 1) and were differentiated towards a heterogeneous population containing cardiac mesoderm (day 3) by treatment with SB-505124+BMP4+C59 (without FGF2) on days 2-3 of differentiation. FACS was performed on day 3 to purify either NKX2.5-GFP^+ or NKX2.5-GFP^− cells (top subpanels) which were sorted for qPCR (bottom subpanels). Gene expression was normalized to expression of a gene in the NKX2.5-GFP^+ fraction (dotted line). D) Timecourse of gene expression in hESCs differentiating towards mid primitive streak and lateral mesoderm, with treatment by SB-505124+BMP4+C59 on days 2-3 of differentiation. […] G) To assess whether a stabilized vitamin C analog (ascorbic acid-2-phosphate) (AA2P) enhanced cardiac mesoderm differentiation into cardiomyocytes, day 4 hESC-derived cardiac mesoderm was exposed to BMP4 (30 ng/mL)+XAV939 (1 μM) for 48 hours in the presence or absence of 200 μg/mL AA2P and qPCR was conducted of day 6 populations; qPCR data were normalized such that expression values in the highest-expressing sample was normalized=1.0. […] J) In the mouse embryo, endocardium (progenitors to heart-affiliated endothelium) are marked by transient coexpression of pan-heart marker Nkx2.5 together with endothelial markers (Ferdous et al., 2009; Stanley et al., 2002).

Molecule: Cc1cnc(-c2cnc(NCCNc3ccc(C#N)cn3)nc2-c2ccc(Cl)cc2Cl)[nH]1 [CHIR99021, 6-[[2-[[4-(2,4-Dichlorophenyl)-5-(5-methyl-1H-imidazol-2-yl)-2-pyrimidinyl]amino]ethyl]amino]-3-pyridinecarbonitrile]
- PS marker expression (qPCR) ([1]; 24 hours in A3B3F20, 300 ng/mL WNT3A or 0.5-8 μM CHIR99021): broadly induces both anterior (TBX6) and mid/posterior (FOXF1, MESP1) PS markers
- differentiation into cardiomyocytes (qPCR day 6) ([2]; BMP4 30 ng/mL with CHIR99021 3 μM, 48 hours): fully blocked cardiac mesoderm differentiation into cardiomyocytes

Molecule: Cc1cccc(-c2[nH]c(C(C)(C)C)nc2-c2ccc3c(c2)OCO3)n1 [SB-505124, 2-[4-(1,3-Benzodioxol-5-yl)-2-(1,1-dimethylethyl)-1H-imidazol-5-yl]-6-methyl-pyridine]
- PS differentiation ([1]; CHIR99021+20 ng/mL FGF2+100 nM PIK90 with 2 μM SB-505124 or 1 μM A-83-01): strongly impairs PS differentiation

B1: Activin: TGFβ agonist (protein, UniProt P08476 311-426, looked up)
Inhibin beta A chain: GLECDGKVNICCKKQFFVSFKDIGWNDWIIAPSGYHANYCEGECPSHIAGTSGSSLSFHSTVINHYRMRGHSPFANLKSCCVPTKLRPMSMLYYDDGQNIIKKDIQNMIVEECGCS
modifications: Inhibin beta A chain
notes: TGFβ agonist
- subsequent cardiomyocyte differentiation ([2]; day 3 cardiac mesoderm, BMP4+C59+FGF2 with Activin 25 ng/mL, 24 hours): enhanced subsequent cardiomyocyte differentiation

B2: BMP4: BMP family ligand, BMP agonist (protein, UniProt P12644 293-408, looked up)
Bone morphogenetic protein 4: SPKHHSQRARKKNKNCRRHSLYVDFSDVGWNDWIVAPPGYQAFYCHGDCPFPLADHLNSTNHAIVQTLVNSVNSSIPKACCVPTELSAISMLYLDEYDKVVLKNYQEMVVEGCGCR
- PS formation and anterior-posterior patterning ([1]; ACFK with LDN193189 250 nM or BMP4 3-100 ng/mL): induced posterior PS
- cardiovascular fate commitment (TNNT2, MYH6, MYH7) ([2]; XAV939 1 μM with BMP4 5-30 ng/mL, 48 hours): preferentially promotes commitment to cardiomyocyte fate
- cardiomyocyte and endothelial gene expression ([2]; day 4 cardiac mesoderm, BMP4 30 ng/mL, 48 hours): upregulation of both cardiomyocyte (myocardium) and endothelial (presumptive endocardium) genes
